Source: the supplement of paper PMC12338614
± gives the uncertainty stated by the source.

B1: library; numbered along this chain (parent)
chain: MEVVDPQQLGMFTEGELMSVGMDTFIHRIDSTEVIYQPRRKRAKLIGKYLMGDLLGEGSYGKVKEVLDSETLCRRAVKILKKKKLRRIPNGEANVKKEIQLLRRLRHKNVIQLVDVLYNEEKQKMYMVMEYCVCGMQEMLDSVPEKRFPVCQAHGYFCQLIDGLEYLHSQGIVHKDIKPGNLLLTTGGTLKISDLGVAEALHPFAADDTCRTSQGSPAFQPPEIANGLDTFSGFKVDIWSAGVTLYNITTGLYPFEGDNIYKLFENIGKGSYAIPGDCGPPLSDLLKGMLEYEPAKRFSIRQIRQHSWFRKKHPPAEAPVPIPPSPDTKDRWRSMTVVPYLEDLHGADEDEDLFDIEDDIIYTQDFTVPGQVPEEEASHNGQRRGLPKAVCMNGTEAAQLSTKSRAEGRAPNPARKACSASSKIRRLSACKQQ

Variants of: B1
Test: STK11 functional score (HeLa growth suppression), rescaled enrichment; synonymous median = 1, nonsense median = 0 (normalised score)
Settings: with HeLa; variant type: missense
Procedure, shortened: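 In HeLa, Bxb1 integrated POPCode codon-randomised libraries of codon-optimised STK11 at an AAVS1 landing pad; three regions were each transfected three times. Integrants, marked as BFP-negative and mCherry-positive, were FACS-sorted 4–5 days after electroporation and expanded for about two weeks before tiled gDNA amplicons were sequenced on NextSeq (~2 million reads per tile). Each functional score is a post/pre-selection log ratio corrected to wild type, rescaled to the synonymous and nonsense medians, and merged across codons and replicate transfections, with error estimated by bootstrapping.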

| Variant | STK11 functional score |
| --- | --- |
| MEVVDPQQLGMFTEGELMSVGMDTFIHRIDSTEVIYQPRRKRAKLIGKYLMGDLLGEGSYGKVKEVLDSETLCRRAVKILKKKKLRRIPNGEANVKKEIQLLRRLRHKNVIQLVDVLYNEEKQKMYMVMEYCVCGMQEMLDSVPEKRFPVCQAHGYFCQLIDGLEYLHSQGIVHKDIKPGNLLLTTGGTLKISDLGVAEALHPFAADDTCRTSQGSPAFQPPEIANGLDTFSGFKVDIWSAGVTLYNITTGLYPFEGDNIYKLFENIGKGSYAIPGDCGPPLSDLLKGMLEYEPAKRFSIRQIRQHSWFRKKHPPAEAPVPIPPSPDTKDRWRSMTVLPYLEDLHGADEDEDLFDIEDDIIYTQDFTVPGQVPEEEASHNGQRRGLPKAVCMNGTEAAQLSTKSRAEGRAPNPARKACSASSKIRRLSACKQQ [V338L] | 1.39 ± 0.22 |
| MEVVDPQQLGMFTEGELMSVGMDTFIHRIDSTEVIYQPRRKRAKLIGKYLMGDLLGEGSYGKVKEVLDSETLCRRAVKILKKKKLRRIPNGEANVKKEIQLLRRLRHKNVIQLVDVLYNEEKQKMYMVMEYCVCGMQEMLDSVPEKRFPVCQAHGYFCQLIDGLEYLHSQGIVHKDIKPGNLLLTTGGTLKISDLGVAEALHPFAADDTCRTSQGSPAFQPPEIANGLDTFSGFKVDIWSAGVTLYNITTGLYPFEGDNIYKLFENIGKGSYAIPGDCGPPLSDLLKGMLEYEPAKRFSIRQIRQHSWFRKKHPPAEAPVPIPPSPDTKDRWRSMTVSPYLEDLHGADEDEDLFDIEDDIIYTQDFTVPGQVPEEEASHNGQRRGLPKAVCMNGTEAAQLSTKSRAEGRAPNPARKACSASSKIRRLSACKQQ [V338S] | 1.59 ± 0.26 |
| MEVVDPQQLGMFTEGELMSVGMDTFIHRIDSTEVIYQPRRKRAKLIGKYLMGDLLGEGSYGKVKEVLDSETLCRRAVKILKKKKLRRIPNGEANVKKEIQLLRRLRHKNVIQLVDVLYNEEKQKMYMVMEYCVCGMQEMLDSVPEKRFPVCQAHGYFCQLIDGLEYLHSQGIVHKDIKPGNLLLTTGGTLKISDLGVAEALHPFAADDTCRTSQGSPAFQPPEIANGLDTFSGFKVDIWSAGVTLYNITTGLYPFEGDNIYKLFENIGKGSYAIPGDCGPPLSDLLKGMLEYEPAKRFSIRQIRQHSWFRKKHPPAEAPVPIPPSPDTKDRWRSMTVRPYLEDLHGADEDEDLFDIEDDIIYTQDFTVPGQVPEEEASHNGQRRGLPKAVCMNGTEAAQLSTKSRAEGRAPNPARKACSASSKIRRLSACKQQ [V338R] | 0.93 ± 0.4 |
| MEVVDPQQLGMFTEGELMSVGMDTFIHRIDSTEVIYQPRRKRAKLIGKYLMGDLLGEGSYGKVKEVLDSETLCRRAVKILKKKKLRRIPNGEANVKKEIQLLRRLRHKNVIQLVDVLYNEEKQKMYMVMEYCVCGMQEMLDSVPEKRFPVCQAHGYFCQLIDGLEYLHSQGIVHKDIKPGNLLLTTGGTLKISDLGVAEALHPFAADDTCRTSQGSPAFQPPEIANGLDTFSGFKVDIWSAGVTLYNITTGLYPFEGDNIYKLFENIGKGSYAIPGDCGPPLSDLLKGMLEYEPAKRFSIRQIRQHSWFRKKHPPAEAPVPIPPSPDTKDRWRSMTVWPYLEDLHGADEDEDLFDIEDDIIYTQDFTVPGQVPEEEASHNGQRRGLPKAVCMNGTEAAQLSTKSRAEGRAPNPARKACSASSKIRRLSACKQQ [V338W] | 0.683 ± 0.13 |
| MEVVDPQQLGMFTEGELMSVGMDTFIHRIDSTEVIYQPRRKRAKLIGKYLMGDLLGEGSYGKVKEVLDSETLCRRAVKILKKKKLRRIPNGEANVKKEIQLLRRLRHKNVIQLVDVLYNEEKQKMYMVMEYCVCGMQEMLDSVPEKRFPVCQAHGYFCQLIDGLEYLHSQGIVHKDIKPGNLLLTTGGTLKISDLGVAEALHPFAADDTCRTSQGSPAFQPPEIANGLDTFSGFKVDIWSAGVTLYNITTGLYPFEGDNIYKLFENIGKGSYAIPGDCGPPLSDLLKGMLEYEPAKRFSIRQIRQHSWFRKKHPPAEAPVPIPPSPDTKDRWRSMTVPPYLEDLHGADEDEDLFDIEDDIIYTQDFTVPGQVPEEEASHNGQRRGLPKAVCMNGTEAAQLSTKSRAEGRAPNPARKACSASSKIRRLSACKQQ [V338P] | 1.54 ± 0.18 |
| MEVVDPQQLGMFTEGELMSVGMDTFIHRIDSTEVIYQPRRKRAKLIGKYLMGDLLGEGSYGKVKEVLDSETLCRRAVKILKKKKLRRIPNGEANVKKEIQLLRRLRHKNVIQLVDVLYNEEKQKMYMVMEYCVCGMQEMLDSVPEKRFPVCQAHGYFCQLIDGLEYLHSQGIVHKDIKPGNLLLTTGGTLKISDLGVAEALHPFAADDTCRTSQGSPAFQPPEIANGLDTFSGFKVDIWSAGVTLYNITTGLYPFEGDNIYKLFENIGKGSYAIPGDCGPPLSDLLKGMLEYEPAKRFSIRQIRQHSWFRKKHPPAEAPVPIPPSPDTKDRWRSMTVIPYLEDLHGADEDEDLFDIEDDIIYTQDFTVPGQVPEEEASHNGQRRGLPKAVCMNGTEAAQLSTKSRAEGRAPNPARKACSASSKIRRLSACKQQ [V338I] | 1.47 ± 0.31 |
| MEVVDPQQLGMFTEGELMSVGMDTFIHRIDSTEVIYQPRRKRAKLIGKYLMGDLLGEGSYGKVKEVLDSETLCRRAVKILKKKKLRRIPNGEANVKKEIQLLRRLRHKNVIQLVDVLYNEEKQKMYMVMEYCVCGMQEMLDSVPEKRFPVCQAHGYFCQLIDGLEYLHSQGIVHKDIKPGNLLLTTGGTLKISDLGVAEALHPFAADDTCRTSQGSPAFQPPEIANGLDTFSGFKVDIWSAGVTLYNITTGLYPFEGDNIYKLFENIGKGSYAIPGDCGPPLSDLLKGMLEYEPAKRFSIRQIRQHSWFRKKHPPAEAPVPIPPSPDTKDRWRSMTVQPYLEDLHGADEDEDLFDIEDDIIYTQDFTVPGQVPEEEASHNGQRRGLPKAVCMNGTEAAQLSTKSRAEGRAPNPARKACSASSKIRRLSACKQQ [V338Q] | 1.54 ± 0.14 |
| MEVVDPQQLGMFTEGELMSVGMDTFIHRIDSTEVIYQPRRKRAKLIGKYLMGDLLGEGSYGKVKEVLDSETLCRRAVKILKKKKLRRIPNGEANVKKEIQLLRRLRHKNVIQLVDVLYNEEKQKMYMVMEYCVCGMQEMLDSVPEKRFPVCQAHGYFCQLIDGLEYLHSQGIVHKDIKPGNLLLTTGGTLKISDLGVAEALHPFAADDTCRTSQGSPAFQPPEIANGLDTFSGFKVDIWSAGVTLYNITTGLYPFEGDNIYKLFENIGKGSYAIPGDCGPPLSDLLKGMLEYEPAKRFSIRQIRQHSWFRKKHPPAEAPVPIPPSPDTKDRWRSMTVTPYLEDLHGADEDEDLFDIEDDIIYTQDFTVPGQVPEEEASHNGQRRGLPKAVCMNGTEAAQLSTKSRAEGRAPNPARKACSASSKIRRLSACKQQ [V338T] | 1.6 ± 0.14 |
| MEVVDPQQLGMFTEGELMSVGMDTFIHRIDSTEVIYQPRRKRAKLIGKYLMGDLLGEGSYGKVKEVLDSETLCRRAVKILKKKKLRRIPNGEANVKKEIQLLRRLRHKNVIQLVDVLYNEEKQKMYMVMEYCVCGMQEMLDSVPEKRFPVCQAHGYFCQLIDGLEYLHSQGIVHKDIKPGNLLLTTGGTLKISDLGVAEALHPFAADDTCRTSQGSPAFQPPEIANGLDTFSGFKVDIWSAGVTLYNITTGLYPFEGDNIYKLFENIGKGSYAIPGDCGPPLSDLLKGMLEYEPAKRFSIRQIRQHSWFRKKHPPAEAPVPIPPSPDTKDRWRSMTVGPYLEDLHGADEDEDLFDIEDDIIYTQDFTVPGQVPEEEASHNGQRRGLPKAVCMNGTEAAQLSTKSRAEGRAPNPARKACSASSKIRRLSACKQQ [V338G] | 1.18 ± 0.3 |
| MEVVDPQQLGMFTEGELMSVGMDTFIHRIDSTEVIYQPRRKRAKLIGKYLMGDLLGEGSYGKVKEVLDSETLCRRAVKILKKKKLRRIPNGEANVKKEIQLLRRLRHKNVIQLVDVLYNEEKQKMYMVMEYCVCGMQEMLDSVPEKRFPVCQAHGYFCQLIDGLEYLHSQGIVHKDIKPGNLLLTTGGTLKISDLGVAEALHPFAADDTCRTSQGSPAFQPPEIANGLDTFSGFKVDIWSAGVTLYNITTGLYPFEGDNIYKLFENIGKGSYAIPGDCGPPLSDLLKGMLEYEPAKRFSIRQIRQHSWFRKKHPPAEAPVPIPPSPDTKDRWRSMTVVGYLEDLHGADEDEDLFDIEDDIIYTQDFTVPGQVPEEEASHNGQRRGLPKAVCMNGTEAAQLSTKSRAEGRAPNPARKACSASSKIRRLSACKQQ [P339G] | 0.73 ± 0.27 |
| MEVVDPQQLGMFTEGELMSVGMDTFIHRIDSTEVIYQPRRKRAKLIGKYLMGDLLGEGSYGKVKEVLDSETLCRRAVKILKKKKLRRIPNGEANVKKEIQLLRRLRHKNVIQLVDVLYNEEKQKMYMVMEYCVCGMQEMLDSVPEKRFPVCQAHGYFCQLIDGLEYLHSQGIVHKDIKPGNLLLTTGGTLKISDLGVAEALHPFAADDTCRTSQGSPAFQPPEIANGLDTFSGFKVDIWSAGVTLYNITTGLYPFEGDNIYKLFENIGKGSYAIPGDCGPPLSDLLKGMLEYEPAKRFSIRQIRQHSWFRKKHPPAEAPVPIPPSPDTKDRWRSMTVVEYLEDLHGADEDEDLFDIEDDIIYTQDFTVPGQVPEEEASHNGQRRGLPKAVCMNGTEAAQLSTKSRAEGRAPNPARKACSASSKIRRLSACKQQ [P339E] | 0.55 ± 0.16 |
| MEVVDPQQLGMFTEGELMSVGMDTFIHRIDSTEVIYQPRRKRAKLIGKYLMGDLLGEGSYGKVKEVLDSETLCRRAVKILKKKKLRRIPNGEANVKKEIQLLRRLRHKNVIQLVDVLYNEEKQKMYMVMEYCVCGMQEMLDSVPEKRFPVCQAHGYFCQLIDGLEYLHSQGIVHKDIKPGNLLLTTGGTLKISDLGVAEALHPFAADDTCRTSQGSPAFQPPEIANGLDTFSGFKVDIWSAGVTLYNITTGLYPFEGDNIYKLFENIGKGSYAIPGDCGPPLSDLLKGMLEYEPAKRFSIRQIRQHSWFRKKHPPAEAPVPIPPSPDTKDRWRSMTVVCYLEDLHGADEDEDLFDIEDDIIYTQDFTVPGQVPEEEASHNGQRRGLPKAVCMNGTEAAQLSTKSRAEGRAPNPARKACSASSKIRRLSACKQQ [P339C] | 1.59 ± 0.11 |
| MEVVDPQQLGMFTEGELMSVGMDTFIHRIDSTEVIYQPRRKRAKLIGKYLMGDLLGEGSYGKVKEVLDSETLCRRAVKILKKKKLRRIPNGEANVKKEIQLLRRLRHKNVIQLVDVLYNEEKQKMYMVMEYCVCGMQEMLDSVPEKRFPVCQAHGYFCQLIDGLEYLHSQGIVHKDIKPGNLLLTTGGTLKISDLGVAEALHPFAADDTCRTSQGSPAFQPPEIANGLDTFSGFKVDIWSAGVTLYNITTGLYPFEGDNIYKLFENIGKGSYAIPGDCGPPLSDLLKGMLEYEPAKRFSIRQIRQHSWFRKKHPPAEAPVPIPPSPDTKDRWRSMTVVAYLEDLHGADEDEDLFDIEDDIIYTQDFTVPGQVPEEEASHNGQRRGLPKAVCMNGTEAAQLSTKSRAEGRAPNPARKACSASSKIRRLSACKQQ [P339A] | 1 ± 0.56 |
| MEVVDPQQLGMFTEGELMSVGMDTFIHRIDSTEVIYQPRRKRAKLIGKYLMGDLLGEGSYGKVKEVLDSETLCRRAVKILKKKKLRRIPNGEANVKKEIQLLRRLRHKNVIQLVDVLYNEEKQKMYMVMEYCVCGMQEMLDSVPEKRFPVCQAHGYFCQLIDGLEYLHSQGIVHKDIKPGNLLLTTGGTLKISDLGVAEALHPFAADDTCRTSQGSPAFQPPEIANGLDTFSGFKVDIWSAGVTLYNITTGLYPFEGDNIYKLFENIGKGSYAIPGDCGPPLSDLLKGMLEYEPAKRFSIRQIRQHSWFRKKHPPAEAPVPIPPSPDTKDRWRSMTVVDYLEDLHGADEDEDLFDIEDDIIYTQDFTVPGQVPEEEASHNGQRRGLPKAVCMNGTEAAQLSTKSRAEGRAPNPARKACSASSKIRRLSACKQQ [P339D] | 1.55 ± 0.23 |
